Data taken from patent US20170349625A1.

Tests used:
[1] = molecular target: GBP4-Tub-tag (GFP-specific nanobody GBP4 with the Tub-tag sequence fused to its C-terminus); assay: cell-based or functional assay
[2] = tested on: T1, 5,6-carboxyfluorescein labeled Tub-tag peptide (CF-Tub-tag, peptide 13)
T1 sequence: VDSVEGEGEEEGEE

Sequence of GBP4-Tub-tag (GFP-specific nanobody GBP4 with the Tub-tag sequence fused to its C-terminus) (heavy, as listed by the source): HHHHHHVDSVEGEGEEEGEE

Row | Substance | C-terminally modified GBP4 (3-N3-L-tyrosine incorporation followed by SPAAC to DBCO-biotin), 1:10 TTL/GBP4, 37 C, one hour [1] | conversion of GBP4 (3-N3-L-tyrosine incorporation followed by SPAAC to DBCO-biotin), 1:5 TTL/GBP4, 37 C, one hour [1] | conversion of GBP4, 1:5 TTL/GBP4, three hours [1] | conversion of GBP4, 1:10 TTL/GBP4, three hours [1] | conjugate yield after 120 min at 37 C, 3-N3-L-tyrosine (3), TTL:peptide 1:200, isocratic HPLC [2] | conjugate yield after 120 min at 37 C, 3-formyl-L-tyrosine (1), TTL:peptide 1:200, isocratic HPLC [2]
1 | tubulin tyrosine ligase (TTL, Canis lupus) (enzyme) | 71% | 82% | 99% | 88% | – | –
2 | tubulin tyrosine ligase (TTL, Canis lupus) | – | – | – | – | After 120 min of incubation at 37 °C the conjugate yield with 1 and 3 was 63% and 80%, respectively | After 120 min of incubation at 37 °C the conjugate yield with 1 and 3 was 63% and 80%, respectively
